This experiment addresses BoABA2, purified protein (GST pull-down and enzyme assay) (cabbage (Brassica oleracea var. capitata)).

As for “BoCML37, purified protein (GST pull-down and enzyme assay) (natural protein)”, the BoABA2 catalytic activity in converting xanthoxin to abscisic aldehyde in vitro, co-incubated with BoCML37 in the presence of Ca2+, relative to BoABA2 alone worked out at 3.88 fold.

The record behind these values is paper PMC12677907.
